Assay results published in US20130005646A1 (Novo Nordisk, published 2013).
Starred links: 1 amine or outer side, 2 acyl side, 3 side chain; linkers in the order of their positions; H or OH if unused. Positions of bridges follow the written chain, without caps; N, C: chain ends. *: point of attachment. C20 diacid = O=C(O)CCCCCCCCCCCCCCCCCCC(=O)*; C18 diacid = O=C(O)CCCCCCCCCCCCCCCCC(=O)*; γGlu = O=C(O)[C@H](CCC(=O)[*:2])N[*:1]

T1: human amylin 3(a) receptor (human calcitonin receptor + RAMP-3) (human, UniProt P30988 25-474; O60896 24-148)
T1 sequence (looked up) 1: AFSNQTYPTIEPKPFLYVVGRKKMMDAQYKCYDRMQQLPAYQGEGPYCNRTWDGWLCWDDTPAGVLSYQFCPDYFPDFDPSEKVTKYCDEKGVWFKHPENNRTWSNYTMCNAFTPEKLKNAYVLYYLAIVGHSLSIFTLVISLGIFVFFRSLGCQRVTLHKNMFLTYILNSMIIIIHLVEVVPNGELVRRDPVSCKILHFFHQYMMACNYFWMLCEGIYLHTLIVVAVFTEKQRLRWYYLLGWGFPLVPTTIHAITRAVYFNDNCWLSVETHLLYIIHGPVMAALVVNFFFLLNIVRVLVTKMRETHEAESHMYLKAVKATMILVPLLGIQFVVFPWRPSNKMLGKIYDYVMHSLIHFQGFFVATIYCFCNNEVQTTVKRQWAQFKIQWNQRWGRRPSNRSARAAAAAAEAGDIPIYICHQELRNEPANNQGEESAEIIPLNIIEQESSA
T1 sequence (looked up) 2: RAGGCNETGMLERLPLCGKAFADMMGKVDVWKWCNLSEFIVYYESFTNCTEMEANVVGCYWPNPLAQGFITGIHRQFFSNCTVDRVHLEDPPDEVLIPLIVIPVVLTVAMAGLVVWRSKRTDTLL

T2: human calcitonin (a) receptor (human, UniProt P30988 25-474)
T2 sequence (looked up): T1 sequence (looked up) 1

B1: N-alpha-[(S)-4-Carboxy-4-(17-carboxyheptadecanoylamino)butyryl]-[Glu14,Arg17]-pramlintide (peptide)
peptide: {C18 diacid-γGlu}-KCNTATCATQRLAEFLRHSSNNFGPILPPTNVGSNTY-NH2
modifications: disulfide 2-7
SMILES: CC[C@H](C)[C@H](NC(=O)[C@@H]1CCCN1C(=O)CNC(=O)[C@H](Cc1ccccc1)NC(=O)[C@H](CC(N)=O)NC(=O)[C@H](CC(N)=O)NC(=O)[C@H](CO)NC(=O)[C@H](CO)NC(=O)[C@H](Cc1c[nH]cn1)NC(=O)[C@H](CCCNC(=N)N)NC(=O)[C@H](CC(C)C)NC(=O)[C@H](Cc1ccccc1)NC(=O)[C@H](CCC(=O)O)NC(=O)[C@H](C)NC(=O)[C@H](CC(C)C)NC(=O)[C@H](CCCNC(=N)N)NC(=O)[C@H](CCC(N)=O)NC(=O)[C@@H](NC(=O)[C@H](C)NC(=O)[C@@H]1CSSC[C@H](NC(=O)[C@H](CCCCN)NC(=O)CC[C@H](NC(=O)CCCCCCCCCCCCCCCCC(=O)O)C(=O)O)C(=O)N[C@@H](CC(N)=O)C(=O)N[C@@H]([C@@H](C)O)C(=O)N[C@@H](C)C(=O)N[C@@H]([C@@H](C)O)C(=O)N1)[C@@H](C)O)C(=O)N[C@@H](CC(C)C)C(=O)N1CCC[C@H]1C(=O)N1CCC[C@H]1C(=O)N[C@H](C(=O)N[C@@H](CC(N)=O)C(=O)N[C@H](C(=O)NCC(=O)N[C@@H](CO)C(=O)N[C@@H](CC(N)=O)C(=O)N[C@H](C(=O)N[C@@H](Cc1ccc(O)cc1)C(N)=O)[C@@H](C)O)C(C)C)[C@@H](C)O
B2: N-alpha-[(S)-4-Carboxy-4-(19-carboxynonadecanoylamino)butyryl]-[Glu10,Glu14,His17]-pramlintide (peptide)
peptide: {C20 diacid-γGlu}-KCNTATCATERLAEFLHHSSNNFGPILPPTNVGSNTY-NH2
modifications: disulfide 2-7
SMILES: CC[C@H](C)[C@H](NC(=O)[C@@H]1CCCN1C(=O)CNC(=O)[C@H](Cc1ccccc1)NC(=O)[C@H](CC(N)=O)NC(=O)[C@H](CC(N)=O)NC(=O)[C@H](CO)NC(=O)[C@H](CO)NC(=O)[C@H](Cc1c[nH]cn1)NC(=O)[C@H](Cc1c[nH]cn1)NC(=O)[C@H](CC(C)C)NC(=O)[C@H](Cc1ccccc1)NC(=O)[C@H](CCC(=O)O)NC(=O)[C@H](C)NC(=O)[C@H](CC(C)C)NC(=O)[C@H](CCCNC(=N)N)NC(=O)[C@H](CCC(=O)O)NC(=O)[C@@H](NC(=O)[C@H](C)NC(=O)[C@@H]1CSSC[C@H](NC(=O)[C@H](CCCCN)NC(=O)CC[C@H](NC(=O)CCCCCCCCCCCCCCCCCCC(=O)O)C(=O)O)C(=O)N[C@@H](CC(N)=O)C(=O)N[C@@H]([C@@H](C)O)C(=O)N[C@@H](C)C(=O)N[C@@H]([C@@H](C)O)C(=O)N1)[C@@H](C)O)C(=O)N[C@@H](CC(C)C)C(=O)N1CCC[C@H]1C(=O)N1CCC[C@H]1C(=O)N[C@H](C(=O)N[C@@H](CC(N)=O)C(=O)N[C@H](C(=O)NCC(=O)N[C@@H](CO)C(=O)N[C@@H](CC(N)=O)C(=O)N[C@H](C(=O)N[C@@H](Cc1ccc(O)cc1)C(N)=O)[C@@H](C)O)C(C)C)[C@@H](C)O
B3: N-alpha-[(S)-4-Carboxy-4-(17-carboxyheptadecanoylamino)butyryl]-Glu-[Glu14,His17,His35]-pramlintide (peptide)
peptide: {C18 diacid-γGlu}-EKCNTATCATQRLAEFLHHSSNNFGPILPPTNVGSHTY-NH2
modifications: disulfide 3-8
SMILES: CC[C@H](C)[C@H](NC(=O)[C@@H]1CCCN1C(=O)CNC(=O)[C@H](Cc1ccccc1)NC(=O)[C@H](CC(N)=O)NC(=O)[C@H](CC(N)=O)NC(=O)[C@H](CO)NC(=O)[C@H](CO)NC(=O)[C@H](Cc1c[nH]cn1)NC(=O)[C@H](Cc1c[nH]cn1)NC(=O)[C@H](CC(C)C)NC(=O)[C@H](Cc1ccccc1)NC(=O)[C@H](CCC(=O)O)NC(=O)[C@H](C)NC(=O)[C@H](CC(C)C)NC(=O)[C@H](CCCNC(=N)N)NC(=O)[C@H](CCC(N)=O)NC(=O)[C@@H](NC(=O)[C@H](C)NC(=O)[C@@H]1CSSC[C@H](NC(=O)[C@H](CCCCN)NC(=O)[C@H](CCC(=O)O)NC(=O)CC[C@H](NC(=O)CCCCCCCCCCCCCCCCC(=O)O)C(=O)O)C(=O)N[C@@H](CC(N)=O)C(=O)N[C@@H]([C@@H](C)O)C(=O)N[C@@H](C)C(=O)N[C@@H]([C@@H](C)O)C(=O)N1)[C@@H](C)O)C(=O)N[C@@H](CC(C)C)C(=O)N1CCC[C@H]1C(=O)N1CCC[C@H]1C(=O)N[C@H](C(=O)N[C@@H](CC(N)=O)C(=O)N[C@H](C(=O)NCC(=O)N[C@@H](CO)C(=O)N[C@@H](Cc1c[nH]cn1)C(=O)N[C@H](C(=O)N[C@@H](Cc1ccc(O)cc1)C(N)=O)[C@@H](C)O)C(C)C)[C@@H](C)O
B4: N-alpha-[(S)-4-Carboxy-4-(19-carboxynonadecanoylamino)butyryl]-His-His-[His1,Glu14,His17,Ser21,Glu35]-pramlintide (peptide)
peptide: {C20 diacid-γGlu}-HHHCNTATCATQRLAEFLHHSSSNFGPILPPTNVGSETY-NH2
modifications: disulfide 4-9
SMILES: CC[C@H](C)[C@H](NC(=O)[C@@H]1CCCN1C(=O)CNC(=O)[C@H](Cc1ccccc1)NC(=O)[C@H](CC(N)=O)NC(=O)[C@H](CO)NC(=O)[C@H](CO)NC(=O)[C@H](CO)NC(=O)[C@H](Cc1c[nH]cn1)NC(=O)[C@H](Cc1c[nH]cn1)NC(=O)[C@H](CC(C)C)NC(=O)[C@H](Cc1ccccc1)NC(=O)[C@H](CCC(=O)O)NC(=O)[C@H](C)NC(=O)[C@H](CC(C)C)NC(=O)[C@H](CCCNC(=N)N)NC(=O)[C@H](CCC(N)=O)NC(=O)[C@@H](NC(=O)[C@H](C)NC(=O)[C@@H]1CSSC[C@H](NC(=O)[C@H](Cc2c[nH]cn2)NC(=O)[C@H](Cc2c[nH]cn2)NC(=O)[C@H](Cc2c[nH]cn2)NC(=O)CC[C@H](NC(=O)CCCCCCCCCCCCCCCCCCC(=O)O)C(=O)O)C(=O)N[C@@H](CC(N)=O)C(=O)N[C@@H]([C@@H](C)O)C(=O)N[C@@H](C)C(=O)N[C@@H]([C@@H](C)O)C(=O)N1)[C@@H](C)O)C(=O)N[C@@H](CC(C)C)C(=O)N1CCC[C@H]1C(=O)N1CCC[C@H]1C(=O)N[C@H](C(=O)N[C@@H](CC(N)=O)C(=O)N[C@H](C(=O)NCC(=O)N[C@@H](CO)C(=O)N[C@@H](CCC(=O)O)C(=O)N[C@H](C(=O)N[C@@H](Cc1ccc(O)cc1)C(N)=O)[C@@H](C)O)C(C)C)[C@@H](C)O
B5: N-alpha-[(S)-4-Carboxy-4-(19-carboxynonadecanoylamino)butyryl]-[Glu14,His17,Ala25,Pro26,Ser28,Ser29,His35]-pramlintide (peptide)
peptide: {C20 diacid-γGlu}-KCNTATCATQRLAEFLHHSSNNFGAPLSSTNVGSHTY-NH2
modifications: disulfide 2-7
SMILES: CC(C)C[C@H](NC(=O)[C@H](CCCNC(=N)N)NC(=O)[C@H](CCC(N)=O)NC(=O)[C@@H](NC(=O)[C@H](C)NC(=O)[C@@H]1CSSC[C@H](NC(=O)[C@H](CCCCN)NC(=O)CC[C@H](NC(=O)CCCCCCCCCCCCCCCCCCC(=O)O)C(=O)O)C(=O)N[C@@H](CC(N)=O)C(=O)N[C@@H]([C@@H](C)O)C(=O)N[C@@H](C)C(=O)N[C@@H]([C@@H](C)O)C(=O)N1)[C@@H](C)O)C(=O)N[C@@H](C)C(=O)N[C@@H](CCC(=O)O)C(=O)N[C@@H](Cc1ccccc1)C(=O)N[C@@H](CC(C)C)C(=O)N[C@@H](Cc1c[nH]cn1)C(=O)N[C@@H](Cc1c[nH]cn1)C(=O)N[C@@H](CO)C(=O)N[C@@H](CO)C(=O)N[C@@H](CC(N)=O)C(=O)N[C@@H](CC(N)=O)C(=O)N[C@@H](Cc1ccccc1)C(=O)NCC(=O)N[C@@H](C)C(=O)N1CCC[C@H]1C(=O)N[C@@H](CC(C)C)C(=O)N[C@@H](CO)C(=O)N[C@@H](CO)C(=O)N[C@H](C(=O)N[C@@H](CC(N)=O)C(=O)N[C@H](C(=O)NCC(=O)N[C@@H](CO)C(=O)N[C@@H](Cc1c[nH]cn1)C(=O)N[C@H](C(=O)N[C@@H](Cc1ccc(O)cc1)C(N)=O)[C@@H](C)O)C(C)C)[C@@H](C)O
B6: N-alpha-[(S)-4-Carboxy-4-(19-carboxynonadecanoylamino)butyryl]-His-His-[Glu14,His17,His35]-pramlintide (peptide)
peptide: {C20 diacid-γGlu}-HHKCNTATCATQRLAEFLHHSSNNFGPILPPTNVGSHTY-NH2
modifications: disulfide 4-9
SMILES: CC[C@H](C)[C@H](NC(=O)[C@@H]1CCCN1C(=O)CNC(=O)[C@H](Cc1ccccc1)NC(=O)[C@H](CC(N)=O)NC(=O)[C@H](CC(N)=O)NC(=O)[C@H](CO)NC(=O)[C@H](CO)NC(=O)[C@H](Cc1c[nH]cn1)NC(=O)[C@H](Cc1c[nH]cn1)NC(=O)[C@H](CC(C)C)NC(=O)[C@H](Cc1ccccc1)NC(=O)[C@H](CCC(=O)O)NC(=O)[C@H](C)NC(=O)[C@H](CC(C)C)NC(=O)[C@H](CCCNC(=N)N)NC(=O)[C@H](CCC(N)=O)NC(=O)[C@@H](NC(=O)[C@H](C)NC(=O)[C@@H]1CSSC[C@H](NC(=O)[C@H](CCCCN)NC(=O)[C@H](Cc2c[nH]cn2)NC(=O)[C@H](Cc2c[nH]cn2)NC(=O)CC[C@H](NC(=O)CCCCCCCCCCCCCCCCCCC(=O)O)C(=O)O)C(=O)N[C@@H](CC(N)=O)C(=O)N[C@@H]([C@@H](C)O)C(=O)N[C@@H](C)C(=O)N[C@@H]([C@@H](C)O)C(=O)N1)[C@@H](C)O)C(=O)N[C@@H](CC(C)C)C(=O)N1CCC[C@H]1C(=O)N1CCC[C@H]1C(=O)N[C@H](C(=O)N[C@@H](CC(N)=O)C(=O)N[C@H](C(=O)NCC(=O)N[C@@H](CO)C(=O)N[C@@H](Cc1c[nH]cn1)C(=O)N[C@H](C(=O)N[C@@H](Cc1ccc(O)cc1)C(N)=O)[C@@H](C)O)C(C)C)[C@@H](C)O

Key:
[1] = biological target: T1, human amylin 3(a) receptor (human …); experiment: cell-based or functional assay
[2] = biological target: T2, human calcitonin (a) receptor; experiment: cell-based or functional assay

| Binder | Amylin receptor human EC50 [1] [nM] | CTa receptor human EC50 [2] [nM] |
| --- | --- | --- |
| B1 | 0.061 | 0.6 |
| B2 | 0.13 | 0.2 |
| B3 | 0.102 | 0.169 |
| B4 | 0.558 | 0.632 |
| B5 | 0.153 | 0.0945 |
| B6 | 0.0965 | 0.115 |
